Reference: the nanobody polyreactivity screen of Harvey et al. (2022)

assay: yeast display, Sf9 membrane polyspecificity reagent, FACS + sequencing; frameworks hold sequencing errors
Procedure, shortened: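 In a synthetic yeast display library (Saccharomyces cerevisiae BJ5465), nanobody expression was induced with galactose for 36–48 hours. FACS gates were set low and high (top ~1%) using anti-HA fluorescence for expression and streptavidin fluorescence for binding of the Sf9 membrane reagent. Each polyreactivity label is drawn from the gate of origin.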

Row | Sequence | polyreactivity (PSR sort gate)
1 | QVQLVESGGGLVQAGGSLRLSCAASGSIYRYAMGWYRQAPGKEREFVAAITGGSGSTYYADSVKGRFTISRDNAKNTVYLQMNSLKPEDTAVYYCAASIWRGLTPLLIGFDYWGQGTQVTVSS | high polyreactivity
2 | QVQLVESGGGLVQAGGSLRLSCAASGLNFRQYAMGWYRKAPGKERELVAAITVTGGTTYYADSVKGRFTISRDNAKNTVYLQMNSLKPEDTAVYYCATRANYVGWTQFGHGYDYWGQGTQVTVSS | low polyreactivity
3 | QVQLVESGGGLVQAGGSLRLSCAASGRIFRRNAMGWYRQAPGKEREFVATITSGGSTFYADSVKGRFTISRDNAKNTVYLQMNSLIPEDTAVYYCAAPYYNTPFHTPNYSWGQGTQVTVSS | low polyreactivity
4 | QVQLVESGGGLVQAGGSLRLSCAASGSTFDPNAMGWYRQAPGKETELVAAIDSGGSTYYADSVKGRFTISRDNAKNTVYLQMNSLKPEDTAVYYCATKQPTWVPRVIISYTKFDYWGQGTQVTVSS | low polyreactivity
5 | QVQLVESGGGLVQAGGSLRLSCAASGSTFGSYAMGWYRQAPGKERELVAAISTRGGRTRYADSVKVRFTISRDNAKNTVYLQMNSLKPQDTAVDYCATRIGSRVYNVSGYYRKDDYWGQGTQVTVSS | high polyreactivity
6 | QVQLVESGGGLVQAGGSLRLSCAASGSTFAFYAMGWYRQAPGKERELVAAISSSGARTYYADSVKGRFTISRYNAKNTVYLQMNSLKPEDTAVYYCAAAFYRLYITSYYYWGQGTQVTVSS | high polyreactivity
7 | QVQLLESGGGLVQAGGSLRLSCAPSGRTFARYDMAWYTQAPGKERELVAVISRTGSTYYADSVKGSFTISRDNEKITVYLLMNSLKPEDTAVYYCATVYVYWGQGTQVTVSS | high polyreactivity
8 | QVQLVESGGGLLQAGGSLRLSCAASGFTFRSYDMGWYRQAPGKERELVAAISWRGGRTYYADSVKGRFTISRDNAKNTVDLQMNSLKPEDTAVYYCATDWYWGSYAPYTTRAHFDYWGQGTQVTVSS | high polyreactivity
9 | QVQLVDSGRGLVQAGGSLRLSCAASGSIFYYNTMGWYRQAPVKERELVAAISSSDGSTYYADSVKGRFTISRDNAKNTVYLQMNSLKPEDTAVYYCNADLIYGEEYDYWGQGTQVTVSS | low polyreactivity
10 | QVQLVESGGGLVQAGGSLRLSCAASGFTFGTYVMGWYRQAPGKERELVARITYGGGRTYYADSVKGRFTISRDNAKNTVYLQMNSLKPEDTAVYYCNARVTYSRYFKGYNYWGQGTQVTVSS | high polyreactivity
11 | QVQLVESGGGLVQAGGSHRLSCAASGRIIGYNPMGWYRQAPGKERELVASIRYSGGSTYYADSVKGRFTISRDNAKNPVYLQMNSLKPEDTAVYYCATRVTYRRRFDYWGQGTQVTVSS | high polyreactivity
12 | QVQLVQSGGGLVHAGGSLRLSCAASGGTFQRYVMGWYRQAPGKERELVAAISRSGSTYADSVKGRFTISRDNAKNTVYLEMNSLKPEDTAVYYCNTVYPGRDYCKFGYWGQGTQVTVSS | high polyreactivity
13 | QVQLVESGGGLVQAGGSLRLSCAASGSTFARYAMGWYRQAPGKERELVAAITWSGGSTYYADSVKGRFTISRDNAKNTVYLQMNSLKPEDTAVYYCAARRRVGYYWGQGTQVTVSS | high polyreactivity
14 | QDQLLESGGGLVQAGGSLRISCAASGRTIIRNAMGWSRQAPGKERELVAAITSGGSTNYADSVKGRFTISRDNAKNTVYLQMNSLKPEDTAVYYCAARYGSQYKHRFYYWGQGTQVTVSS | high polyreactivity
15 | QVQLVESGGGLVQAGGSLRLSCAASGFTIGRYTMGWYRQAPGKERELVAAISWSGGSTYYADSVKGRFTISRDNAKNTVYLQMNSLKPEDTAVYYCAKVFRGGRGDYWGQGTQVTVSS | high polyreactivity
16 | QDQLVESVGGLDQAGGSLRLSCAASGFIFGANAIGWYRQATGKEREMVAAISSSGGRYELRRSVKGRFTISRDNAKNTVYLQMNSLKPEDTAVYYCATPYPTGRPRHYSWGQGTQVTVSS | high polyreactivity
17 | QVHLVESGGGLVQAGGSLRLSCAASGFTFSTYAMGVSRQAPGKEREWVAAISSGGTTNYADSEKGRFTISRDNAMNTVYLQMNCLKPEDTAVYYCATGYGRWTAYSTSYDYWGQGTQVTVSS | low polyreactivity
18 | QVQLVESGGGLVQAGGSLRLSCAASGRIFGYYAMGWYRQAPGKERELVATINSVGSTNYADSVKGRFTISRDNAKNTVYLQMNSLKPEDTAVYYCATDSAYTFFTYRLWRHGYWGQGTQVTVSS | low polyreactivity
19 | QVQLVESGGGLVQAGGSLRLSCAASGSTFWPYAMGWYRPAPGKERELVAAITNSGGSTYYADSVKGRFTISRDNAKYTVYLQMNSLKPEDTAVYYCAVRGVIYSYTPVNTYDYWGQGTQVTVSS | low polyreactivity
20 | QVQLVESGGGLVQAGGSLRLSCAASGSTFSYNAMGWYRQAPGKERELVAAITSTGRTYYADSVKGRFTITRDNAKNTVYLQMISLKPEDTAGYYCNKVYYRFYSADFGYGWYLRYDYWGQGTQVTVSS | high polyreactivity
21 | QVQLVESGGGLVQAGGSLRLSCAASGRIFYVYAMGWYRQAPGKEMELVATITSSGEGTYYADSVMGRFTISRDNAKNTVYLQMNSLKPEDTAVYYCARRYFVRFVHPPYYYWGQGTQVTVSS | low polyreactivity
22 | QVQLVESGGGLVQAGGSLRLSCAASGRTFETYAMGWYRQAPGKERELVATIRSSGSTNYADSVKGRFTISRDNAKNTVYLQMNSLKPEDTAVYYCAAVYVYRTSYLISLYDYGYWGQGTQVTVSS | high polyreactivity

Row | Sequence | polyreactivity (PSR sort gate)
23 | QVQLVESGGGLVQAGGSLRLSSAASGRTFSRYAMGWYRQAPGKERELVATISWSGGSTYYADSVKGRFTISRDNAKNTVYLQMNSLNPEDTAVYYCAAKGVYQYRFTKYGYWGQGTQVTVSS | high polyreactivity
24 | QVQLVESGGGLVQAGGSLRLSCAASGITFDYYAMGWYRQAPGKERELVAAISYSGGSTYYADSVKGRFTISRDNAKNTVYLQMNSLKPEDTAVYYCAAETFTISSDYYYWGQGTQVTVSS | low polyreactivity
25 | QVQLVESGGGLVQAGGSHRLTCAASGSTFRRYARGWYRQAPGKERELVATISSGRRTNYADSVKGRFTISRDNAKNTVYLQMNSLKPEDTAVYYCAAAYWSSRADTVIKRYYWGQGTQVTVSS | high polyreactivity
26 | QVQLVESGGGLFQAGGSLRLSCAASGRTFRYYVMGWYRQAPGKERELVAAISKSGASTYYADSVKGRFTISRDNAKYTVYSQMNSLKPEDTAVYYCAAGGVYSIYRTSRVGYDYWGQGTQVTVSS | high polyreactivity
27 | QVQLVESGGGLVQAGGSLRLSCAASGFTFVINDLGWYRQAPGKERELVADITSGGDTYYADSVKGRFTISRDNAKNTVYLQMNSLKPEDTAFYYCAADIYPDWIYLLYGYWGQGTQVTVSS | low polyreactivity
28 | QVQLVESGGGLVQAGGSLRLSCAASGLTFGYYAMGWYRQAPGKERELVAGISGSGGSTYYADSVKGRFTISRDNAKNTLYLQMNSLKPEDTAVYYCNAEARYTGFAYSYFNSDYWGQGTQVTVSS | low polyreactivity
29 | QVQLVESGGGLVQAGGSLRLSCAASGSIFKYNAMGWYRQAPGKERELVAAITNGGSTYADSVKGRFTISRDNAKNTVYLQMNSLKPEDTAVYYCNFYGQDGVNVTYDYWGQGTQVTVSS | low polyreactivity
30 | QVQLLESGVGKVQAGGRLRLSCAASGSIFLIYAMGWYRQAPGKESELVAAISSGGSKYYADSVNGRFTISRDNAKNTVYLQMNSVKPEDTAVYYCATYSTCVAYHLYYWGQGTQVSVSS | low polyreactivity
31 | QVQLVESGGGLVQAGGSLRLSCAASGSIYRYYDMGWYRQAPGKERELVAAITYSGGGTYYADSVKGRFTISRDNAKNTVYLQMNSLKPEDTAVYYCAAEPYYGWKRLDYWGQVTQVTVSS | low polyreactivity
32 | QVQLVESGGGLVQAGGSLRLSCAASGSTFPGNSMGWYRQAPGKEMELVAAIDTSGGSTYYADSVKWRFTISRDNAKNTVYLQINSLKPEDTAVYYCAADYLIEMDYWGQGTQVTVSS | low polyreactivity
33 | QVQLVESGGGLVQAGGSLRLSCASSGRTFQVNAMGWYRQAPGKERELVAAISASDGSTYADSVKGRFTISRDNAKNTVYLQMNSLKPEDTAVYYCNKAAYGGHRTSEQVGWVYLYDYWGQGTQVTVSS | low polyreactivity
34 | QVQLQESAGLVQAGGLRLSCAASGSVSYQEAMGWYRQAPGKERELVATMSFGANTNYADSVKVRFTISRDNAKNTVYLQMNSLKPEETAVYYCAAESLFDDYYGYWGQGTQVTVSS | low polyreactivity
35 | QVQLVESGGGLVQAGGSLRLSCAASSRIFVAKAMGWYRKAPGKERELVATITRGASTNYADSVKGRFTISRDNAKNTVYLQMNRLKPEDTAVYYCDKRSYTGYEYWGQGTQVTVSS | low polyreactivity
36 | QVQLVESGGGLVQAGGSLRLSCAASGSTFYTNAMGWYRQAPGKERELVAAISGSGGSTNYADSVKGRFTISRDNAKNTVYLQMISLKPEDTAVYYGAADGSNYSGSVAAFPYRVDYWGQGTQVNVSS | low polyreactivity
37 | QVQLVESGGGLVQAGGSLRLSCAASGLTFWDNAMGWYRQAPGKERELVAAITRSGGSTHYADSVKGRFTISRDNAKNTVYLQMNSLKPEDTAVYYCAADYDFYDFSYQSWSEENYWGQGTQVTVSS | low polyreactivity
38 | QVQLVESGGGLVQSGGSLRLSCAASGSTIPSYALGWYRHAPGKERELVASITYSDGTTSYADSVKGRFTISRDNAKNTVYLQMNSLKPEDTAVYYCNAVYYREGMDYWGQGTQVTVSS | low polyreactivity
39 | QVQLVESGGGLVQAGGSLRLSCAASGSTSDPYGMGWYRQAPGKERELVAAISSNGDSTYYADSVKGRFTLSRDNAKNTVYLQMNSLKPEDTAVYYCAARILYSYHLYDYWGQGTQVTVSS | high polyreactivity
40 | QVQLVESGGGLVQAGGSRRLSCAASGRTFIVYAMGWYRQAPGKERELVARISSGSRTSYADSVKGRFTISRDNAKNTVYLQMNSLKPEDTAVYYCAKSRVIKYEFDYWGQGTQVTVSS | low polyreactivity
41 | QVQLVESWGGLVQAGGSLRLSCAASGLIFKVYAMGWYRQAPGKERELVAAITYSGGSTDYADSVKGRFTISRDNAKNTVYLQMNSLKPEDTAVYYCNVEKVGHVNSYGYDYWGQGTQVTVSS | low polyreactivity
42 | QVQLVESGGGLVQAGGSLRLSCAASGFTFWVYAMGWYRQATGKEREFVASISWTGDTTYYADSVKGRFTISRDNAKNTVYLQMNSLKPEDTAVYYCAVDTILGYDYWGQGTQVTVSS | low polyreactivity
43 | QVQLVESGGGLVQAGGSLRLSCAASGFTFGGYAMGWYRQAPGKERELVAAISGRGGRTYYADSVKGRFTISRDNAKNTVYLQMNSLKPEDTAVYYCAAPTNHWTRLSGDYWGQGTQVTVSS | high polyreactivity
